Data set [1] has as its target T1, N-carbobenzoxy-Pro-citrulline-p-nitroanilide.
T1 chain: P

In data set [2] the target is T2, N-carboxybenzoxy-Phe-Val-Arg-p-nitroanilide.
T2 chain: FVR

The target in data set [3] is T3, N-glutaryl-Ala-Ala-Pro-Leu-p-nitroanilide.
T3 chain: AAPL

The target of data set [4] is T4, N-methoxysuccinyl-Ala-Ile-Pro-Met-p-nitroanilide.
T4 chain: AIPM

Data set [5] addresses T5, N-p-tosyl-Gly-Pro-Lys-p-nitroanilide.
T5 chain: GPK

The target in data set [6] is T6, N-succinyl-Ala-Ala-Ala-p-nitroanilide.
T6 chain: AAA

For data set [7], the target named is T7, N-succinyl-Ala-Ala-Pro-Met-p-nitroanilide.
T7 chain: AAPM

In data set [8] the target is T8, N-succinyl-Ala-Ala-Pro-Phe-p-nitroanilide.
T8 chain: AAPF

The target in data set [9] is T9, N-succinyl-Ala-Ala-Val-Ala-p-nitroanilide.
T9 chain: AAVA

The target in data set [10] is T10, N-succinyl-Ala-Ala-p-nitroanilide.
T10 chain: AA

Data set [11] deals with T11, N-succinyl-Gly-Gly-Phe-p-nitroanilide.
T11 chain: GGF

The target of data set [12] is T12, butyroxycarboxy-Leu-Ser-Thr-Arg-p-nitroanilide.
T12 chain: LSTR

This is an account of results in patent US20110045570.

B1: alkaline protease ALTP (protein)
chain: AQSTPWGVTRVQAPNVWNRGFTGSGVRVAVLDTGIHSSHEDLTVSGGYSVFGDSPYNDVQGHGTHVAGTIAARNNSVGVIGVAYNAQLYAVKVLNNQGSGTLAGIAQGIEWARQNNMHVINMSLGGTSGSTTLQNAVNAAYNAGILVVAAAGNSGNSAGTGDNVGFPARYPNAMAVAATTSGNVRASFSSTGPAVEIAAPGQDINSTYPTNTYRSLNGTSMAAPHVAGVAALLKSARPAVTAAGIRNAMNSTALNLGNSNWYGNGLVRANNALDMVLSY
As for B1, the “activity to synthetic substrate (p-nitroaniline liberated)” value is listed as “It showed activity to ... N-carbobenzoxy-Pro-citrulline-p-nitroanilide (CBZ-Pro-Cit)” in data set [1]; “It showed activity to ... N-carboxybenzoxy-Phe-Val-Arg-p-nitroanilide (Z-FVR)” in data set [2]; “It showed activity to ... N-p-tosyl-Gly-Pro-Lys-p-nitroanilide (To-GPK)” in [5]; “It showed activity to ... N-succinyl-Ala-Ala-Ala-p-nitroanilide (AAA)” in data set [6]; “It showed activity to ... N-succinyl-Ala-Ala-p-nitroanilide (AA)” in [10]; “It showed activity to ... N-succinyl-Gly-Gly-Phe-p-nitroanilide (GGF)” in [11]. The “activity to synthetic substrate (p-nitroaniline liberated)” value in data set [12] is reported as “It showed activity to, besides the foregoing synthetic substrates, butyroxycarboxy-Leu-Ser-Thr-Arg-p-nitroanilide (LSTR)”. Also, the Relative activity (%) came out at 91% in data set [3]; 90% in data set [4]; 74% in [7]; 100% in data set [8]; 4.6% in data set [9]. For the same protein, the “initial cleavage site (LC/MS/MS of digestion fragments)” value with acidic insulin B-chain is recorded as “alkaline protease ALTP of the invention first cleaves Leu-Tyr”. Further, in the data set with acidic insulin B-chain, the “peptide bonds cleaved within 24 hours (300 ng enzyme, LC/MS/MS)” value was 26 peptide bonds of 29 peptide bonds except Phe-Val and Thr-Pro-Lys bonds are cleaved within 24 hours.
